Biological target: T1, Nup58(239–415), entire ordered region of Nup58 from Rattus norvegicus, His6 tag cleaved (Rattus norvegicus, UniProt P70581 239-415)
T1 construct: Nup58, Rattus norvegicus, residues 239-415 (entire ordered region); source: co-expressed with Nup54 and Nup62 from a polycistronic vector; not shown: His6, N-terminal, cleaved
T1 sequence: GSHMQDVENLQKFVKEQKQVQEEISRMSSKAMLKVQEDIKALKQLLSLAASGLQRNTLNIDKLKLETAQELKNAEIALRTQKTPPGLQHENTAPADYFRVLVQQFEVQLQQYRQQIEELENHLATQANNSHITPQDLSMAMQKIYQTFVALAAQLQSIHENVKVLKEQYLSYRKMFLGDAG
Test: SEC; competition: preassembled triple complex (1.5 mg/ml) incubated with Nup54 (453–494) wild type or H469F/Q473L (0.6 mg/ml), then size-exclusion chromatography and SDS-PAGE of column fractions
Details: both partners purified

binding result: binds
B1: wild-type Nup54 (453–494), Nup58-cognate segment of Nup54 (domain or fragment, Rattus norvegicus, UniProt P70582 453-494, looked up)
chain: EEKYYIDADLLREIKQHLKQQQEGLSHLISIIKDDLEDIKLV
notes: also called Nup54 segment; wt Nup54 (453–494)
